# US20200131230A1 (published 2020)
# Read-outs that look alike come from different tables or passages of the source. Positions of bridges follow the written chain, without caps; N, C: chain ends. Non-standard residues stand in square brackets, D forms with d. 2Nal = N[C@@H](Cc1ccc2ccccc2c1)C(=O)O; Nle = CCCC[C@H](N)C(=O)O; 4CF = not defined here; DCF = not defined here; HF = not defined here
# B1: Compound 20 (peptide)
# peptide: {CH2CO}-WISGKTWVKWVC-NH2
# modifications: thioether N-12
# SMILES: CC[C@H](C)[C@@H]1NC(=O)[C@H](Cc2c[nH]c3ccccc23)NC(=O)CSC[C@@H](C(N)=O)NC(=O)[C@H](C(C)C)NC(=O)[C@H](Cc2c[nH]c3ccccc23)NC(=O)[C@H](CCCCN)NC(=O)[C@H](C(C)C)NC(=O)[C@H](Cc2c[nH]c3ccccc23)NC(=O)[C@H]([C@@H](C)O)NC(=O)[C@H](CCCCN)NC(=O)CNC(=O)[C@H](CO)NC1=O
# B2: Compound 17 (peptide)
# peptide: {CH2CO}-FITGKNWVKWVC-NH2
# modifications: thioether N-12
# SMILES: CC[C@H](C)[C@@H]1NC(=O)[C@H](Cc2ccccc2)NC(=O)CSC[C@@H](C(N)=O)NC(=O)[C@H](C(C)C)NC(=O)[C@H](Cc2c[nH]c3ccccc23)NC(=O)[C@H](CCCCN)NC(=O)[C@H](C(C)C)NC(=O)[C@H](Cc2c[nH]c3ccccc23)NC(=O)[C@H](CC(N)=O)NC(=O)[C@H](CCCCN)NC(=O)CNC(=O)[C@H]([C@@H](C)O)NC1=O
# B3: Compound 38 (peptide)
# peptide: {CH2CO}-[2Nal]ISGRNW[Nle]KWVC-NH2
# modifications: thioether N-12
# SMILES: CCCC[C@@H]1NC(=O)[C@H](Cc2c[nH]c3ccccc23)NC(=O)[C@H](CC(N)=O)NC(=O)[C@H](CCCNC(=N)N)NC(=O)CNC(=O)[C@H](CO)NC(=O)[C@H]([C@@H](C)CC)NC(=O)[C@H](Cc2ccc3ccccc3c2)NC(=O)CSC[C@@H](C(N)=O)NC(=O)[C@H](C(C)C)NC(=O)[C@H](Cc2c[nH]c3ccccc23)NC(=O)[C@H](CCCCN)NC1=O
# B4: Compound 23 (peptide)
# peptide: {CH2CO}-WISGRTWVKWVC-NH2
# modifications: thioether N-12
# SMILES: CC[C@H](C)[C@@H]1NC(=O)[C@H](Cc2c[nH]c3ccccc23)NC(=O)CSC[C@@H](C(N)=O)NC(=O)[C@H](C(C)C)NC(=O)[C@H](Cc2c[nH]c3ccccc23)NC(=O)[C@H](CCCCN)NC(=O)[C@H](C(C)C)NC(=O)[C@H](Cc2c[nH]c3ccccc23)NC(=O)[C@H]([C@@H](C)O)NC(=O)[C@H](CCCNC(=N)N)NC(=O)CNC(=O)[C@H](CO)NC1=O
# B5: Compound 33 (peptide)
# peptide: {CH2CO}-[2Nal]WSGRNWVKWVC-NH2
# modifications: thioether N-12
# SMILES: CC(C)[C@@H]1NC(=O)[C@H](Cc2c[nH]c3ccccc23)NC(=O)[C@H](CCCCN)NC(=O)[C@H](C(C)C)NC(=O)[C@H](Cc2c[nH]c3ccccc23)NC(=O)[C@H](CC(N)=O)NC(=O)[C@H](CCCNC(=N)N)NC(=O)CNC(=O)[C@H](CO)NC(=O)[C@H](Cc2c[nH]c3ccccc23)NC(=O)[C@H](Cc2ccc3ccccc3c2)NC(=O)CSC[C@@H](C(N)=O)NC1=O
# B6: Compound 26 (peptide)
# peptide: {CH2CO}-FISGRNW[Nle]KWVC-NH2
# modifications: thioether N-12
# SMILES: CCCC[C@@H]1NC(=O)[C@H](Cc2c[nH]c3ccccc23)NC(=O)[C@H](CC(N)=O)NC(=O)[C@H](CCCNC(=N)N)NC(=O)CNC(=O)[C@H](CO)NC(=O)[C@H]([C@@H](C)CC)NC(=O)[C@H](Cc2ccccc2)NC(=O)CSC[C@@H](C(N)=O)NC(=O)[C@H](C(C)C)NC(=O)[C@H](Cc2c[nH]c3ccccc23)NC(=O)[C@H](CCCCN)NC1=O
# B7: Compound 22 (peptide)
# peptide: {CH2CO}-WISGKTWVRWVC-NH2
# modifications: thioether N-12
# SMILES: CC[C@H](C)[C@@H]1NC(=O)[C@H](Cc2c[nH]c3ccccc23)NC(=O)CSC[C@@H](C(N)=O)NC(=O)[C@H](C(C)C)NC(=O)[C@H](Cc2c[nH]c3ccccc23)NC(=O)[C@H](CCCNC(=N)N)NC(=O)[C@H](C(C)C)NC(=O)[C@H](Cc2c[nH]c3ccccc23)NC(=O)[C@H]([C@@H](C)O)NC(=O)[C@H](CCCCN)NC(=O)CNC(=O)[C@H](CO)NC1=O
# B8: Compound 21 (peptide)
# peptide: {CH2CO}-FISGKNWMRWVC-NH2
# modifications: thioether N-12
# SMILES: CC[C@H](C)[C@@H]1NC(=O)[C@H](Cc2ccccc2)NC(=O)CSC[C@@H](C(N)=O)NC(=O)[C@H](C(C)C)NC(=O)[C@H](Cc2c[nH]c3ccccc23)NC(=O)[C@H](CCCNC(=N)N)NC(=O)[C@H](CCSC)NC(=O)[C@H](Cc2c[nH]c3ccccc23)NC(=O)[C@H](CC(N)=O)NC(=O)[C@H](CCCCN)NC(=O)CNC(=O)[C@H](CO)NC1=O
# B9: Compound 27 (peptide)
# peptide: {CH2CO}-[2Nal]FSGRNWVKWVC-NH2
# modifications: thioether N-12
# SMILES: CC(C)[C@@H]1NC(=O)[C@H](Cc2c[nH]c3ccccc23)NC(=O)[C@H](CCCCN)NC(=O)[C@H](C(C)C)NC(=O)[C@H](Cc2c[nH]c3ccccc23)NC(=O)[C@H](CC(N)=O)NC(=O)[C@H](CCCNC(=N)N)NC(=O)CNC(=O)[C@H](CO)NC(=O)[C@H](Cc2ccccc2)NC(=O)[C@H](Cc2ccc3ccccc3c2)NC(=O)CSC[C@@H](C(N)=O)NC1=O
# B10: Compound 8 (peptide)
# peptide: {CH2CO}-FRSGRNWVRWVC-NH2
# modifications: thioether N-12
# SMILES: CC(C)[C@@H]1NC(=O)[C@H](Cc2c[nH]c3ccccc23)NC(=O)[C@H](CCCNC(=N)N)NC(=O)[C@H](C(C)C)NC(=O)[C@H](Cc2c[nH]c3ccccc23)NC(=O)[C@H](CC(N)=O)NC(=O)[C@H](CCCNC(=N)N)NC(=O)CNC(=O)[C@H](CO)NC(=O)[C@H](CCCNC(=N)N)NC(=O)[C@H](Cc2ccccc2)NC(=O)CSC[C@@H](C(N)=O)NC1=O
# B11: Compound 18 (peptide)
# peptide: {CH2CO}-FISGKTWVKWVC-NH2
# modifications: thioether N-12
# SMILES: CC[C@H](C)[C@@H]1NC(=O)[C@H](Cc2ccccc2)NC(=O)CSC[C@@H](C(N)=O)NC(=O)[C@H](C(C)C)NC(=O)[C@H](Cc2c[nH]c3ccccc23)NC(=O)[C@H](CCCCN)NC(=O)[C@H](C(C)C)NC(=O)[C@H](Cc2c[nH]c3ccccc23)NC(=O)[C@H]([C@@H](C)O)NC(=O)[C@H](CCCCN)NC(=O)CNC(=O)[C@H](CO)NC1=O
# B12: Compound 19 (peptide)
# peptide: {CH2CO}-FISGKNWMKWVC-NH2
# modifications: thioether N-12
# SMILES: CC[C@H](C)[C@@H]1NC(=O)[C@H](Cc2ccccc2)NC(=O)CSC[C@@H](C(N)=O)NC(=O)[C@H](C(C)C)NC(=O)[C@H](Cc2c[nH]c3ccccc23)NC(=O)[C@H](CCCCN)NC(=O)[C@H](CCSC)NC(=O)[C@H](Cc2c[nH]c3ccccc23)NC(=O)[C@H](CC(N)=O)NC(=O)[C@H](CCCCN)NC(=O)CNC(=O)[C@H](CO)NC1=O
# B13: Compound 16 (peptide)
# peptide: {CH2CO}-WISGKNWVKWVC-NH2
# modifications: thioether N-12
# SMILES: CC[C@H](C)[C@@H]1NC(=O)[C@H](Cc2c[nH]c3ccccc23)NC(=O)CSC[C@@H](C(N)=O)NC(=O)[C@H](C(C)C)NC(=O)[C@H](Cc2c[nH]c3ccccc23)NC(=O)[C@H](CCCCN)NC(=O)[C@H](C(C)C)NC(=O)[C@H](Cc2c[nH]c3ccccc23)NC(=O)[C@H](CC(N)=O)NC(=O)[C@H](CCCCN)NC(=O)CNC(=O)[C@H](CO)NC1=O
# B14: Compound 29 (peptide)
# peptide: {CH2CO}-[2Nal]ISGRNWVK[2Nal]VC-NH2
# modifications: thioether N-12
# SMILES: CC[C@H](C)[C@@H]1NC(=O)[C@H](Cc2ccc3ccccc3c2)NC(=O)CSC[C@@H](C(N)=O)NC(=O)[C@H](C(C)C)NC(=O)[C@H](Cc2ccc3ccccc3c2)NC(=O)[C@H](CCCCN)NC(=O)[C@H](C(C)C)NC(=O)[C@H](Cc2c[nH]c3ccccc23)NC(=O)[C@H](CC(N)=O)NC(=O)[C@H](CCCNC(=N)N)NC(=O)CNC(=O)[C@H](CO)NC1=O
# B15: Compound 39 (peptide)
# peptide: {CH2CO}-[2Nal]ISGRNW[Nle]KWFC-NH2
# modifications: thioether N-12
# SMILES: CCCC[C@@H]1NC(=O)[C@H](Cc2c[nH]c3ccccc23)NC(=O)[C@H](CC(N)=O)NC(=O)[C@H](CCCNC(=N)N)NC(=O)CNC(=O)[C@H](CO)NC(=O)[C@H]([C@@H](C)CC)NC(=O)[C@H](Cc2ccc3ccccc3c2)NC(=O)CSC[C@@H](C(N)=O)NC(=O)[C@H](Cc2ccccc2)NC(=O)[C@H](Cc2c[nH]c3ccccc23)NC(=O)[C@H](CCCCN)NC1=O
# Columns and labels:
# [1] = target: T1, Thrombospondin human platelet (Calbiochem, 605225) (human, UniProt P07996 19-1170); test: cell-based or functional assay
# [2] = target: T1, Thrombospondin human platelet …; test: cell-based or functional assay; remark: listed apart in the source
# T1 sequence (P07996 19-1170 limits assumed): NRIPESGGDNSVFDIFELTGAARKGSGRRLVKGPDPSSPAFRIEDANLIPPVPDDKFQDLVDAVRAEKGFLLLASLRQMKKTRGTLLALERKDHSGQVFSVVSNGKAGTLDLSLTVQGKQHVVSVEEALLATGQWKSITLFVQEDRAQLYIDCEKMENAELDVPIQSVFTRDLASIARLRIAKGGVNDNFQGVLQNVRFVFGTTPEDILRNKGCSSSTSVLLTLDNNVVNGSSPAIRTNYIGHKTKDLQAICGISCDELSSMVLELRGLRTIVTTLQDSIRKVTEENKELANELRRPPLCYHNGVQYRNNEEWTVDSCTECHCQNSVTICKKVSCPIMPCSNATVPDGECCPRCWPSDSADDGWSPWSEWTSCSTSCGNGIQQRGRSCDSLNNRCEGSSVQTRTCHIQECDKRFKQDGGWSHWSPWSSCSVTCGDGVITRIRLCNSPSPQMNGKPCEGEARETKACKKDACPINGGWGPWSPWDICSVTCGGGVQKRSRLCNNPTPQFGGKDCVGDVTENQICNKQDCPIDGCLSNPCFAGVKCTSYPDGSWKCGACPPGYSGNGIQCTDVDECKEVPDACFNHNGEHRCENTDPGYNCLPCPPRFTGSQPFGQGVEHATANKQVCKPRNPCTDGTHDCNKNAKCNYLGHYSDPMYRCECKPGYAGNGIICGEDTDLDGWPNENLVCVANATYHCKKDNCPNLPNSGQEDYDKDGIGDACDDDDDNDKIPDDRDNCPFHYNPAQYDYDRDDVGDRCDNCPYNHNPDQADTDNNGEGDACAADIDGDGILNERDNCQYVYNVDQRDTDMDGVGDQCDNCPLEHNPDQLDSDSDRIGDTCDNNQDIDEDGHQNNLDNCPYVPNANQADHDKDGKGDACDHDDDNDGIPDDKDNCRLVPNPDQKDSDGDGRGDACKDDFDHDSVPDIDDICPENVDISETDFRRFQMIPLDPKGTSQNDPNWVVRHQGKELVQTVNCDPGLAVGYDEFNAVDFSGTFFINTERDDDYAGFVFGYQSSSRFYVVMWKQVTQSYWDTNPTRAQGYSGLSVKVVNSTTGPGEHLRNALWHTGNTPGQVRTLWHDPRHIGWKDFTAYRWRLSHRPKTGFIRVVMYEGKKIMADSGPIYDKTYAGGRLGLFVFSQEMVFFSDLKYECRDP
Binder,Cell adhesion IC50 [1] [nM],Cell adhesion IC50 [2] [nM]
B1,13.1,
B2,17.7,
B3,,9.2
{CH2CO}-[DCF][2Nal]SGRNWVKWVC-NH2 (thioether N-12; reading uncertain) [Compound 34],,28.1
B4,15.6,
{CH2CO}-[2Nal]ISGRN[6CW]VKWVC-NH2 (thioether N-12) [Compound 35],,26
B5,,20.7
B6,,7
B7,20.3,
{CH2CO}-[4CF]ISGRNWVKWVC-NH2 (thioether N-12; reading uncertain) [Compound 25],7.9,
B8,21.3,
B9,,32.8
{CH2CO}-[2Nal]ISGRNWVK[6CW]VC-NH2 (thioether N-12) [Compound 36],,17.2
B10,33.4,
{CH2CO}-[2Nal][4CF]SGRNWVKWVC-NH2 (thioether N-12; reading uncertain) [Compound 31],,32.5
{CH2CO}-[2Nal][HF]SGRNWVKWVC-NH2 (thioether N-12; reading uncertain) [Compound 32],,25.9
B11,13,
B12,14.1,
B13,21,
B14,,17.6
{CH2CO}-[2Nal]ISGRNWVKW[HF]C-NH2 (thioether N-12; reading uncertain) [Compound 37],,19.6
B15,,16.3
